Data as given in IntAct's records for PubMed 25064736.

B1: Nibrin (Homo sapiens), O60934 (parent)
chain: MWKLLPAAGPAGGEPYRLLTGVEYVVGRKNCAILIENDQSISRNHAVLTANFSVTNLSQTDEIPVLTLKDNSKYGTFVNEEKMQNGFSRTLKSGDGITFGVFGSKFRIEYEPLVACSSCLDVSGKTALNQAILQLGGFTVNNWTEECTHLVMVSVKVTIKTICALICGRPIVKPEYFTEFLKAVESKKQPPQIESFYPPLDEPSIGSKNVDLSGRQERKQIFKGKTFIFLNAKQHKKLSSAVVFGGGEARLITEENEEEHNFFLAPGTCVVDTGITNSQTLIPDCQKKWIQSIMDMLQRQGLRPIPEAEIGLAVIFMTTKNYCDPQGHPSTGLKTTTPGPSLSQGVSVDEKLMPSAPVNTTTYVADTESEQADTWDLSERPKEIKVSKMEQKFRMLSQDAPTVKESCKTSSNNNSMVSNTLAKMRIPNYQLSPTKLPSINKSKDRASQQQQTNSIRNYFQPSTKKRERDEENQEMSSCKSARIETSCSLLEQTQPATPSLWKNKEQHLSENEPVDTNSDNNLFTDTDLKSIVKNSASKSHAAEKLRSNKKREMDDVAIEDEVLEQLFKDTKPELEIDVKVQKQEEDVNVRKRPRMDIETNDTFSDEAVPESSKISQENEIGKKRELKEDSLWSAKEISNNDKLQDDSEMLPKKLLLTEFRSLVIKNSTSRNPSGINDDYGQLKNFKKFKKVTYPGAGKLPHIIGGSDLIAHHARKNTELEEWLRQEMEVQNQHAKEESLADDLFRYNPYLKRRR
partner: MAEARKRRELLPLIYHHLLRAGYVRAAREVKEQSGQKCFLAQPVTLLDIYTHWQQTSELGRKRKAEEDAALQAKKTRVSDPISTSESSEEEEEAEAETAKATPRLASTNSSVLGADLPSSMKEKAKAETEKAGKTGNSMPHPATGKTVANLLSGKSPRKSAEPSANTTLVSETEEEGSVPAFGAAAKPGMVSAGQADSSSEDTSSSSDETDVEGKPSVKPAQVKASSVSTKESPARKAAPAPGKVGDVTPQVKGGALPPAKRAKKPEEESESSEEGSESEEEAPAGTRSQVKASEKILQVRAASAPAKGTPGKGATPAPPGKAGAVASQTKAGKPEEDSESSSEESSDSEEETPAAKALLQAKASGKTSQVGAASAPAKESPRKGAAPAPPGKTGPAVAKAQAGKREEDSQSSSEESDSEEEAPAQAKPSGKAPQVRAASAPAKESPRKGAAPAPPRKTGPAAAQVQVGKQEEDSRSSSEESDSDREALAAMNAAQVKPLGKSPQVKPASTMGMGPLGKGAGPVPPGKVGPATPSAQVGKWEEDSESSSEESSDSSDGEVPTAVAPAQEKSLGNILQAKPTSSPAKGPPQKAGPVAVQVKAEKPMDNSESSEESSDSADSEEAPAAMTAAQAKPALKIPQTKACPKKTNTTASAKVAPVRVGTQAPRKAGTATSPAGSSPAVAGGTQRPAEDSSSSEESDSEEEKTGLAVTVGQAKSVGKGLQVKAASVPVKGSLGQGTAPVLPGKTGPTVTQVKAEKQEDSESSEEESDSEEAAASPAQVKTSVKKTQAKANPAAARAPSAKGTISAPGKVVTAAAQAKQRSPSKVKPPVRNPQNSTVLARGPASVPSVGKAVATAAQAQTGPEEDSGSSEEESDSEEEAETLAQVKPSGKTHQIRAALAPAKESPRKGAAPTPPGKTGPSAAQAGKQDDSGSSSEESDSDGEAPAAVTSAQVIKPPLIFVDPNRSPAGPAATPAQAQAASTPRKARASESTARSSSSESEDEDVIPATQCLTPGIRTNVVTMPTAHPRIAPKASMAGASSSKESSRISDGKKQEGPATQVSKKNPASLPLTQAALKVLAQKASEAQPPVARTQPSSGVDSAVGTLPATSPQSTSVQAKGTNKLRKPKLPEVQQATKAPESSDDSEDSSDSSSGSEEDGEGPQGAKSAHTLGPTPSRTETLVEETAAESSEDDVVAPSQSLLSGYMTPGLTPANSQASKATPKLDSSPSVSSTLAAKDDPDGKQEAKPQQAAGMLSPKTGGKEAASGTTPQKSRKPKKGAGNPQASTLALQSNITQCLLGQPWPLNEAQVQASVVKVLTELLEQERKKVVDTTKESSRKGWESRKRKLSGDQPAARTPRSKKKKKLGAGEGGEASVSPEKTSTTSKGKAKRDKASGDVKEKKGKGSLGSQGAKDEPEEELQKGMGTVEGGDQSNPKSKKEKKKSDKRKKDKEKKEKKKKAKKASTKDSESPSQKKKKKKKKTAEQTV
B2: Treacle protein (Homo sapiens), Q13428 (parent)
chain: B1 partner

Variants of: B1
Conditions: with tcof_human TCOF1, Q13428

Row | Variant | effect of a mutation on the interaction
1 | R28A;K160M | disrupting interaction strength

Variants of: B1
Conditions: with tcof_human TCOF1, Q13428
Remark: another data set of the same source

Row | Variant | effect of a mutation on the interaction
2 | R28A | disrupting interaction strength

Variants of: B2
Conditions: with nbn_human NBN

Row | Variant | effect of a mutation on the interaction
3 | T210A | disrupting interaction strength
